# Assay: soluble fraction after stress (log2 fold change); higher = more stays soluble; pooled small domains, quantitative proteomics
# Details: stress: pH 4
# Method in brief: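 Values are log2 fold changes, and higher ones mean more of the domain stayed soluble. Each fold change reflects the soluble amount of a domain after acid stress and is taken as a measure of aggregation propensity. The stress was pH 4, applied to pooled custom libraries of small protein domains analysed by high-throughput quantitative proteomics.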
row,Sequence,soluble fraction (log2)
1,HMAAEGARNNSLFNSLRERALEVSSHNELEQIAFKMNETNIPPLRASEVISVVNSVWKNRISNQIIP,-0.0841
2,HMAAFGDLLSELRRDMNMTQDELAKVLFVSPGTISNYENNIHFPDVPKLKQIAQYFGVTTDYLLG,-1
3,HMAAINTYQVRKIYAIAGALGMKSRDGDDALHDLVFGMTGKQHISGLTSAEAYDVIAELEKKQ,-0.223
4,HMAALKVAVLTVSDTRTQETDTSGAFLEGALREAGHEIADRQIVIDDVYQLRAIVSQWIADPEVEVILT,-1.31
5,HMAALTADEAKQIALKHAGVAESDVQRLKVEQDRDDGRLLYEVEWDVGRTEYSYEIDANTGDILNYEKDV,-0.361
6,HMAANKIDEDRNTELLQVIQNKFPDADAATKKSVKEIMKEHDIPNFKNADDIPTAVLEQIVKVLNQ,-0.128
7,HMAAPLTDRETEVLTLLARGLINKQIAEELHIGLTTVITHRRNIMEKLRVRSLAELILRAVAAGYVDAGR,-0.78
8,HMAARKDLIAGEDAEGRLDAWLAAALDGEFSRNRVKALIEQGAVAINDVAVTEPKRKIRPGDRLSIVLPEP,0.248
9,HMAARLMRALIPYAQGGLLAKLHEDGQVLSEEYTGEGIEVKALADEQLFGRLTVQLGEQAVSWQD,-0.205
10,HMAASTPGTVTGSVVNVRPDPSTNNDRIGVIYQGTKVEILAQVGEWYNIQFGPVSGWVHKDYISTGA,-0.161
11,HMAATISPEIQAEAEKAAALGVESIKNFMASLKEKNPEQHALFSDSEKRRLYAIARKADLNTTQQG,0.0597
12,HMAAVPQPQRSETIVYIGGRKFYVHTVQAGETLYSIARLYGVSEQTLVANNPTMADVVKADQNVRIPVPA,-0.00329
13,HMAAYRLIPLGNSNKDFETYQEAIQYMRDKLDESSKAFEEGKQNWVYSGRVYGVPWSDGRTTFTVDLVPKV,0.0755
14,HMADASVTAYFKIAEDRLQGRLPDTFSEASLKARYQLTPAQLTAVLTRIAQEGWAERKPGYGWAFSSML,-1
15,HMADEIMYPVQVNGKVRAEIFVAADQSKNKELVLEMAKSEERVQKYLEEGNLIKEIFVPGRIVNLVI,-0.269
16,HMADEIQIGLQKAIQSLPEKQKLVFSMRYYDEIPYDEMSKILDMSVGTLKTNYHYAKQKIEDFLQNH,-0.0771
17,HMADFIGMNATVTERIFPQGFGRISFVYEGNSISEPARSEDGKEIPTGTSVVVLEVRDKVYIVQPL,-0.0827
18,HMADGDIIPEGQRDATLASLAGSMRARGMTEAEILAALQVTNETRVRPPMALADLERIARSIGRYEPGK,0.0649
19,HMADKGTITNQQEKILKALILFPEGASIEEIQKAADLGIDKRQFQRRLNTLIESGQINRTGKSRGTKYHTI,0.356
20,HMADLKVGFVHRAGSVLERELDDVLEALEMYRSALAIDPSHKPSLDALTRISQLADYREQAAEILEPLPR,-1.04
21,HMADLNFHQQIRSLPPEQQEILLLRFGQELTLRQIAQVTGVPLRTVQSRLRAALKKLKSQLEKEE,-0.0215
22,HMADLPQATALADVKGDVQMQGIQFGYDPEKIIIHDLNLHARPGSLVAIVGPTGAGKTTIINLLMRFYD,0.124
23,HMADLVYLRKRLQDAIAQLPEDMRTAYTLFQIARRSIREIAELTGASESLVKVRIHRAKGKLQELLEDLR,-0.55
24,HMADPAVLIAELFRAMPEKRFSVKNLISATGAETREQKDYVREVVHSLSREGMIEQVAEGKYRLSASE,0.241
25,HMADQVLVMTRAVGQGDIVRNADIGLTSVAVDRAVATIPASQLDKIVGRHALVDLSPGQLLGSHSVGE,0.107

row,Sequence,soluble fraction (log2)
1,HMADRDKYIIMGQQLLRAAFEHFGKKATDKALENAANKLRISDVPELYARLGSAELQPRDVINVIFPD,-0.0521
2,HMADRLITLSEVASLLRVSRHTVQAWISPSSPNHRPEFAIMARHAGRRTVFIEAEVTAWLDQRRG,-0.7
3,HMADVSPEAQHKMVEAFAQFGVTKEHIEQRIQRRLDAIQPAQMVTLKRIFASLRDGMSTPAEWFE,-1.03
4,HMADYSGYLGKKGKVIAPLRPAGTALIDGERVDVVSFGDYIDKDSEIEVVKIEGSKLLVKKY,0.128
5,HMAEAIVMSTAAPVKSSPDPQSKDIFVLHEGTKVAVGDSLGDWREIRIADGNKGWVLVSAIEMI,-0.173
6,HMAEDGNMTFEEYAKRWLARQVRYAPSTLESYRRMLGRVYPFIGAIPINRLRPIALENLLAELRKRT,-0.0982
7,HMAEEFESMTEARRLELARLVDSRGFVRVTDAAEELGVSDVTIRGDLSELERRGLLTRVHGGAMPVT,-0.366
8,HMAEKEYYYATDALNLRQGPGMEHTVKGEVVLGERVALLGLEGKWAKIQNAQGTTGYVFSAYLAPS,-0.147
9,HMAEMLENQLKHAKSKQEANEYIAAAIGGVSDDDPDKEYLVAAYNEISKEFHHSSAYHRLPDT,≥ 0.43
10,HMAEMRYLDQIYEVNVPLPDLSLEDGDLLARWAVNFHQRYEELFSYRQSDQEIRLVTLRVTVLGELP,-1.67
11,HMAENMNAALRVSSLINQIGTVNAKAKDRIESARKAYDALSEAQKAYVANLTTLETAETSLSKL,0.146
12,HMAENTIPSVIGKTLSDATFLLESYGYERGGVSEEYSEMPKGVVIRQSPQAGSSADPGTKVNLVVSLGEEI,-0.692
13,HMAENTKKWDETGRRYRSYIKLEKRLSENTVESYMRDYMQFAHFILRQWDVAPHKVEPQMVERYMAWLYER,-0.806
14,HMAEPIAAGKYTVSTSGSVLNMRVSPDADSQVLEKIPNGTIVEVTKSVLGWAYVTYNSAQGWVSSAYLV,-0.463
15,HMAEPLMTQIVEIEYADAEGLRENLEQFLTRLDEKTLLGSVLVDRHTNSLIIQAVRSDLERMLPLIETLDR,-1.49
16,HMAEPLYKQVKNKIIQNLTSDEWKPGSVIPSETKLAETYGVGVSTIRMAIGELVAARILIRRQGKGTFVSS,0.238
17,HMAEQDILQSVYPHIGGQDNVSRTISRNGTLYLMLKDASAVDLKAVKQVPGIADAALERGRLTLQLEE,-0.0819
18,HMAEQLGNSRTANMVMLGAMIERTGVISIDSAMEALKATFGPKKEHLLPINRQAMEAGAAAARAV,-0.517
19,HMAERVWASLLEIKNAVAIEDAKTLEDVDNSEKIAEERIAALNDDAKHPLAIAFIGKLRQDIAEKKIELA,-1.19
20,HMAESSPYTVRPGDTLWKILAQTQNARYNDFPYLYRKFRELNPNITDLNHIVSGQKIIVPHIPG,0.196
21,HMAESTRSRILNAAIEMMETGGESSVRLSAIAEALGIKEPSIYHHFTNRTELVNAAYIEWYW,-0.63
22,HMAEVDREEALRIALAHAAVARRDVRNLKIERGEENGVPVYKVEFETAFGDFDVAVSRRSGDVVDAD,-0.0548
23,HMAEVIYGAGKTPAQMLGILRTMQAHGQKTVLITRLREEAAEEIGREIPLQYDKTAGVGIVGTLPQPDG,-0.0513
24,HMAEVPSLIGKSLDAAKQAIIDAGFKVGSVSYDNSDSYGKGQVMWQQYEPSTKVKKGSSISIKVSKGS,-0.121
25,HMAEVRTLLVPIELAGMRFDQVLAELLPEFSRSRLAAWIKSGDALLDGHDAKPKGVVRGGEQIEIRLA,-0.167
